Laboratory results from patent publication US20230295310A1 (ABCELLERA BIOLOGICS, published 2023).

Assays:
human CD3 = target: T1, human CD3 (human, UniProt P07766 23-207; P04234 22-171; P09693 23-182); test: flow cytometry, Jurkat cells
T1 construct: whole, on cells; also called CD3 on Jurkat cells; CD3 on human primary T cells
Description: Purified antibodies were confirmed to bind CD3 expressed on cells using the CytoFLEX S or LX flow cytometers (Beckman Coulter). Antibodies were diluted to 25 nM in FACS buffer (PBS+2% FBS) and were incubated with CD3-expressing cells for 30 minutes at 4° C. […] The median fluorescence intensity of the binding signal for each antibody was normalized to the isotype control to obtain a fold over isotype value. An antibody with a fold over isotype (FOI) of ≥10 was considered to be positive for binding.

cynomolgus monkey CD3 = target: T2, cynomolgus monkey CD3 (cynomolgus monkey, UniProt Q95LI5 22-198; Q95LI8 22-171; Q95LI7 23-181); test: flow cytometry, cyno primary T cells
T2 construct: whole, on cells; CD3 on purified cynomolgus monkey CD3 pan T cells; also called cyno CD3; CD3 on cyno primary T cells
Method in brief: (§1)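 Flow cytometric binding was measured after cells were incubated with antibody (25 nM, PBS+2% FBS) at 4° C for 30 minutes. Signals were normalized to isotype to yield FOI, with ≥10 scored positive.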

[1] = target: T3, human CD3 expressed on cells (human, UniProt P07766 23-207; P04234 22-171; P09693 23-182); test: flow cytometry, 25 nM
T3 construct: whole, on cells; CD3 complex on Jurkat cells and on human primary T cells
Method in brief: as §1

[2] = target: T4, cynomolgus monkey CD3 expressed on primary T cells (cynomolgus monkey, UniProt Q95LI5 22-198; Q95LI8 22-171; Q95LI7 23-181); test: flow cytometry, 25 nM
T4 construct: whole, on cells; CD3 complex on purified cynomolgus monkey T cells; also called cyno CD3
Method in brief: as §1

[3] = target: T5, cynomolgus monkey CD3 expressed on cyno primary T cells (cynomolgus monkey, UniProt Q95LI5 22-198; Q95LI8 22-171; Q95LI7 23-181); test: flow cytometry, 25 nM, cyno primary T cells
T5 construct: whole, on cells; CD3 complex on purified cynomolgus monkey CD3 pan T cells; also called cyno CD3
Method in brief: as §1

[4] = target: T6, human CD3 expressed on cells (Jurkat cells; human primary T cells) (human, UniProt P07766 23-207; P04234 22-171; P09693 23-182); test: flow cytometry, 25 nM, Jurkat cells
T6 construct: whole, on cells
Method in brief: as §1

[5] = target: T6, human CD3 expressed on cells (Jurkat …); test: flow cytometry, 25 nM, human primary T cells
Method in brief: as §1

T4 sequence (Q95LI5 22-198, chain 1 of 3): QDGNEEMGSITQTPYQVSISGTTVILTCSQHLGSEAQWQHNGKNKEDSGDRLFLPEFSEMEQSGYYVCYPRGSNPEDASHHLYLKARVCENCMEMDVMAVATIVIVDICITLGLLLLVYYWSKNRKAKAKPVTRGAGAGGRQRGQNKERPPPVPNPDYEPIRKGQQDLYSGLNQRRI
T4 sequence (Q95LI8 22-171, chain 2 of 3): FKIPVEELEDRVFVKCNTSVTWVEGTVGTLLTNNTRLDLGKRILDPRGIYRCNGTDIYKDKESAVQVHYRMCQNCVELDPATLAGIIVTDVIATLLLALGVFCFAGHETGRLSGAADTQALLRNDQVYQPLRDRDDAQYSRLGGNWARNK
T4 sequence (Q95LI7 23-181, chain 3 of 3): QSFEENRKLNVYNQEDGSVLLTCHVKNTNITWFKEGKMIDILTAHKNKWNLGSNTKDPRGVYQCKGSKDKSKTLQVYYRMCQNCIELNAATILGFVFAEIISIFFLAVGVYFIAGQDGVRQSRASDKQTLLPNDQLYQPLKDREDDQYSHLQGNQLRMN
T5 sequence (Q95LI5 22-198, chain 1 of 3): as the sequence (Q95LI5 22-198, chain 1 of 3) above
T5 sequence (Q95LI8 22-171, chain 2 of 3): as the sequence (Q95LI8 22-171, chain 2 of 3) above
T5 sequence (Q95LI7 23-181, chain 3 of 3): as the sequence (Q95LI7 23-181, chain 3 of 3) above
T2 sequence (Q95LI5 22-198, chain 1 of 3): as the sequence (Q95LI5 22-198, chain 1 of 3) above
T2 sequence (Q95LI8 22-171, chain 2 of 3): as the sequence (Q95LI8 22-171, chain 2 of 3) above
T2 sequence (Q95LI7 23-181, chain 3 of 3): as the sequence (Q95LI7 23-181, chain 3 of 3) above
T1 sequence (P07766 23-207, chain 1 of 3): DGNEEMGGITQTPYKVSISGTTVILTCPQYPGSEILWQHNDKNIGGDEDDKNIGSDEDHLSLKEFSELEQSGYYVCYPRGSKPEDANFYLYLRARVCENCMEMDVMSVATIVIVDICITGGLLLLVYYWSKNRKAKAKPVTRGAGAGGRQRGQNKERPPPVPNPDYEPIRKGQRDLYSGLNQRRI
T1 sequence (P04234 22-171, chain 2 of 3): as the sequence (Q95LI8 22-171, chain 2 of 3) above, with V5I, K15N, V20I, T32S, N33D, N34I, A64T, N74S, L83V, R141H counted along it
T1 sequence (P09693 23-182, chain 3 of 3): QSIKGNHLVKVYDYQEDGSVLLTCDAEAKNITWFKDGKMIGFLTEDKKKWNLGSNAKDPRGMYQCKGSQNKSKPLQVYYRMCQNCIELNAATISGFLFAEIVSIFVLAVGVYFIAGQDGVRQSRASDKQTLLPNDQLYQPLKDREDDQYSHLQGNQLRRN
T6 sequence (P07766 23-207, chain 1 of 3): as the sequence (P07766 23-207, chain 1 of 3) above
T6 sequence (P04234 22-171, chain 2 of 3): as the sequence (Q95LI8 22-171, chain 2 of 3) above, with V5I, K15N, V20I, T32S, N33D, N34I, A64T, N74S, L83V, R141H counted along it
T6 sequence (P09693 23-182, chain 3 of 3): as the sequence (P09693 23-182, chain 3 of 3) above
T3 sequence (P07766 23-207, chain 1 of 3): as the sequence (P07766 23-207, chain 1 of 3) above
T3 sequence (P04234 22-171, chain 2 of 3): as the sequence (Q95LI8 22-171, chain 2 of 3) above, with V5I, K15N, V20I, T32S, N33D, N34I, A64T, N74S, L83V, R141H counted along it
T3 sequence (P09693 23-182, chain 3 of 3): as the sequence (P09693 23-182, chain 3 of 3) above

Human primary T Cell Binding (FOI) [1]	Jurkat Cell Binding (FOI) [1]	Cyno primary T Cell Binding (FOI) [2]	Binder	binding result (human CD3)	binding result (cynomolgus monkey CD3)	other results
123 FOI	145 FOI	245 FOI	mAb 69 (antibody, V domains shown) VH: QMLLVESGGGVVQPGRSLTLSCAASGFTFRSYGMHWVRQAPGRGLEWVAIIWYDGSTEYYADSVKGRFTISRANSKNMLYLQMNSLRAEDTAVYYCAAFDYTNSFDIWGQGTMVTVSS VL: DIVVTQTPLSSPVTLGQPASISCRSSQRFVHSDGNTYLSWLQQRPGQPPRLLIYKISNRISGVPDRFSGSGAGTDFKLKISRVEAEDVGIYYCMQATQFPYTFGQGTKLEIK			
131 FOI	140 FOI	238 FOI	mAb 70 (antibody, V domains shown) VH: QGQLVESGGGVVQPGRSLRLSCEASGFTFRSYGMHWVRQPPGKGLEWVAIIWYDGGKKYYGDSVKGRFTISRDNPKNTLYLQMNSLRPEDTAVYYCMAYDYSNGFDIWGQGTMVTVSS VL: DIVMTQTPLSSPVTLGQPASISCRSSQSFVHSDGSTYLSWLQQRPGQPPRLLIYKISNRFSGVPDRFSGRGAGTDFTLKISRVEAEDVGIYYCMQNTQFPYTFGQGTKLEIK			
116 FOI	104 FOI	41.6 FOI	mAb 78 (antibody, V domains shown) VH: EVQLVESGGGLVQPGGSLRLSCAASGFTFSSYWMSWVRQAPGKGLEWVANIKQDGSEKYYVDSVKGRFTISRDNAKNSLYLQMNSLRAEDTAVYYCARDNSPSFYWYFDLWGRGTLVTVSS VL: DIQMTQSPSTLSASVGDRVTITCRASQSLSRWLAWYQQKPGKAPKLLIYKASSLESGVPSRFSGSGSGTEFTLTISSLQPDDFATYYCQQYYTYSRTFGQGTKVEIK			

Continued, binder first:

Binder	Human primary T Cell Binding (FOI) [1]	Jurkat Cell Binding (FOI) [1]	Cyno primary T Cell Binding (FOI) [2]	binding result (human CD3)	binding result (cynomolgus monkey CD3)	other results
mAb 311 (antibody, V domains shown, VH and VL only) VH: EVQLLESGGGLVQPGGSRRLSCAASGFTFSSYAMSWVRQAPGKGLEWVSVINTRGDITSYADSVKGRFTISRDNSKNTLYLQMNSLRAEDTAVYYCAKKYSYYYYYMDVWGKGTTVTVSS VL: SYELTQPLSVSVALGQTARITCGGNNIGSKNVHWHQQKPGQAPVLVIYRESNRPSGIPERFSGSNSGNTATLTSSRAQAGDEADYYCQVWDSSTAVFGGGTQLTAL				no binding (tested: FOI ≥10 = positive; 25 nM)	no binding (tested: FOI ≥10 = positive; 25 nM)	
mAb 319 (antibody, V domains shown, VH and VL only) VH: EVQLLESGGGLLQPGGSRRLSCAATEFTFRSYAMSWVRQSPGKGLEWVSVISGRGDNTYYADSVKGRFTISRDNSKNTLYLQMNSLRAEDTAVYYCAKMYSYYYYYMDVWGKGTTVTVSS VL: SYELTQPLSVSVALGQTARITCGGNNIGSKNVHWHQQKPGQAPVLVIYRESNRPSGIPERFSGSNSGNTATLTSSRAQAGDEADYYCQVWDSSTAVFGGGTQLTAL				no binding (tested: FOI ≥10 = positive; 25 nM)	no binding (tested: FOI ≥10 = positive; 25 nM)	
mAb 312 (antibody, V domains shown, VH and VL only) VH: EGQLLESGGGLVQPGGSLRLSCAASGFTFSRYAMSWIRQAPGKGLEWVSVINGSGGDKNYADSVKGRFTISRDNSKNSLYLLMNGLRVEDTAIYFCAKKFSYYYYYMDVWGKGTSVTVSS VL: SYELTQPLSVSVALGQTARITCGGNNIGSKNVHWHQQKPGQAPVLVIYRESNRPSGIPGRFSGSNSGNTATLTSSRAQAGDEADYYCQVWDSSTAVFGGGTQLTAL				no binding (tested: FOI ≥10 = positive; 25 nM)	no binding (tested: FOI ≥10 = positive; 25 nM)	
mAb 180 (antibody, V domains shown, VH/VL only) VH: EVNLVESGGGLVQPGRSLRLSCAASGFTFDDYTMHWVRQVPGKGLEWVSNISWNSGSLGYADSVKGRFTISRDNAKDSLYLQMNSLRVEDTALYYCAKDSSGYGHYNSYYMDVWGKGTTVTVSS VL: DIQMTQSPSSLSASVGDRVTITCRASQSIRNYLNWYQQKPGKAPKVLIYSASSLQSGVPSRFSGSGSGTDFTLTISSLQPEDFASFYCQQTYSTPITFGQGTRLEIK						Binding (FOI) [3]: 90.2 FOI
mAb 324 (antibody, V domains shown) VH: QVQVVQSGAEVKKPGASVKVSCKTSGYTFTDYYIHWVRQAPGQGLEWMGWIYPKSGRTDNAQNFKGRVAMTRDTSINTAYLELNRLRSDDTAIYYCARLEELVFDYWGQGTLVTVSS VL: DIQMTQSPSSVSASVGDRVTITCRASQVISRWLAWYQLKPGKAPKLLIYEASSLQSWVPSRFSGSGSGTDFTLTISSLQPEDFATYYCQQANSFPWTFGQGTKVEIK				no binding (tested: FOI ≥10 = positive; 25 nM)	no binding (tested: FOI ≥10 = positive; 25 nM)	
mAb 325 (antibody, V domains shown) VH: QVQVVQSGAEVKKPGASVKVSCKTSGYTFTDQYIHWVRQAPGQGLEWMGWIYPKSGRTDNAQKFKGRVAMTRDTSINTAYMELSSLRSDDTATYYCARLEELVFDYWGQGTLVTVSS VL: not shown				no binding (tested: FOI ≥10 = positive; 25 nM)	no binding (tested: FOI ≥10 = positive; 25 nM)	
mAb 310 (antibody, V domains shown, VH and VL only) VH: QVQLVESGGGVVQPGRSLRLSCAASGFTFRSYGMHWVRQAPGKGLEWVTIIWYDGSKKYYADSVRGRFTISRDNSKNMLYLQMNSLRAEDTAVYYCASQEFNWNDGGFYYMDVWGKGTTVTVSS VL: DIQLTQSPSFLSASVGDRVTITCRASQDISSYLHWCQQKPGKAPKLLIYGASTLQSGVPSRFSGSGSGKEFTLTISSLQPEDFATYYCQQLDNYPPTFGGGTKVEIK				no binding (tested: FOI ≥10 = positive; 25 nM)	no binding (tested: FOI ≥10 = positive; 25 nM)	
mAb 323 (antibody, V domains shown, VH and VL only) VH: QVQVVQSGAEVKNPGASVKVSCKASGYTFTGYYMHWVRQAPGQGLEWMGWIYPNSGRTNYAQKFQGRVTMTRDTSISTAYMELSRLRSDDTAVYYCARLEQLVFDYWGQGTLVTVSS VL: not shown				no binding (tested: FOI ≥10 = positive; 25 nM)	no binding (tested: FOI ≥10 = positive; 25 nM)	
mAb 176 (antibody, V domains shown, VH/VL only) VH: EVELVESGGGLVQPGRSLRLSCAASGFKFDDYTMHWVRLPPGKGLEWVSGISWNSGTIDYGDSVKGRFTISRDNAKNSLYLQMNSLRVEDTALYYCAKDTSGYGHYFYYYMDVWGKGTTVTVSS VL: DIQMTQSPSSLSASIGDRVSITCRTSQIINNYLNWYQQKPGKAPKVLIYSASSLQSGVPSRFSGSGSGTDFTLTINSLQPEDFATYYCQQSYNFPITFGQGTRLELK						Binding (FOI) [4]: 114 FOI; Binding (FOI) [3]: 34 FOI; Binding (FOI) [5]: 147 FOI
mAb 153 (antibody, V domains shown) VH: QVQLVESGGGVVQPGRSLRLSCAASGFTFSTYGMHWVRQAPGKGLEWVAVIWYDGSHKYYSDSVKGRFTISRDNSKNTLYLQMNSLRVEDTAIYYCARTGITGTTAYFYFDSWGQGTLVTVSS VL: not shown	262 FOI	98.5 FOI	26.1 FOI			
mAb 158 (antibody, V domains shown) VH: EVQLVESGGGLVQPGRSLRLSCAASGFTFADYTMHWVRQVPGKGLEWVSGISWNSGSVDYADSVKGRFTISRDNAKKTLYLQMNSLRAEDTALYYCAKDSSGYGHYYFYYLDVWGKGTTVTVSS VL: EIVMTQSPATLSVSPGERATLSCRATQSVSSNLAWYQQKPGQAPRLLIYSTSTRATGIPARFSGSRSGTEFTLTISSLQSEDSAVYYCQQYNNWPHFGQGTRLEIK	164 FOI	117 FOI	10.9 FOI			
mAb 171 (antibody, V domains shown, VH/VL only) VH: EVQLVESGGGLVQPGRSLRLSCAASGFTFADYTMHWVRQAPGQGLEWVSGISWNSGSIDYADSVKGRFIISRDNAKKTLYLQMNSLRAEDTALYYCAKDSSGYGHYYFYYLDVWGKGTTVTVSS VL: EIVMTQSPATLSVSPGERATLSCRASQSVSSNLAWYQQKPGQAPRLLIYSTSTRATGIPARFSGSRSGTEFTLTISSLQSEDSAVYYCQQYNNWPHFGQGTRLEIK						Binding (FOI) [4]: 108 FOI; Binding (FOI) [3]: 20.1 FOI; Binding (FOI) [5]: 165 FOI
mAb 121 (antibody, V domains shown) VH: EVQLVESGGGLVQPGRSLRLSCATSGFTFADYTMHWVRQAPGKGLEWVSGISWNSGSIDYADSVKGRFTISRDNAKKSLYLQMNSLRAEDTALYFCAKDSSGYGHYYFYYLDVWGKGTTVTVSS VL: EIVMTQSPGTLSVSPGKRATLSCRASQSVSSNLAWYQQKPGQGPRLLIYSTSTRATGIPARFSGSGSGTEFTLTISSLQSEDSAVYYCQHYNNWPHFGQGTRLEIK	101 FOI	101 FOI	12.2 FOI			
